Legend:
[1] = molecular target: wild-type CXCL8^1–72 (human); assay: native MS; nanoESI-MS under non-denaturing conditions, 200 mM ammonium acetate; 5‒20 μM protein (methods; 2–7 μM in the results for the wild type); monomer to dimer
[2] = molecular target: trapped dimer (CXCL8^R26C) (human); assay: as above
[3] = molecular target: CXC chemokine receptor 1 (CXCR1) (human) (UniProt P25024)
Chain of CXC chemokine receptor 1 (CXCR1) (human) (P25024 whole entry): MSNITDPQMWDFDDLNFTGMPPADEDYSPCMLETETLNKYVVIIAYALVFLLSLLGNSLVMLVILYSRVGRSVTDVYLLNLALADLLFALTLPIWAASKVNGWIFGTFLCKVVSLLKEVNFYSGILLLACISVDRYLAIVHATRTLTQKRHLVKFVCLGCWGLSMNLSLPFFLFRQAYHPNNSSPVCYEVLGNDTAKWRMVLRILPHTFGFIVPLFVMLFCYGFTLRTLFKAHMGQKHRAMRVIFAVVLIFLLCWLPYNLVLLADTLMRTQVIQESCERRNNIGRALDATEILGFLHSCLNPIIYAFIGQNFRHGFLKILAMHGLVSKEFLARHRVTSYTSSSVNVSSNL

| Substance | stoichiometry N [1] | stoichiometry N [2] | NanoBiT Gi1 dissociation assay in HEK293A cells; fold higher concentration needed than the trapped monomer (CXCL8^1–65) to elicit a response from CXCR1 [3] [fold] | NanoBiT Gi1 dissociation assay in HEK293A cells; fold higher concentration needed than the wild-type CXCL8 to elicit a response from CXCR1 [3] [fold] |
| --- | --- | --- | --- | --- |
| wild-type CXCL8^1–72 (ligand) | 2 | – | – | – |
| trapped dimer (CXCL8^R26C) (ligand) | – | 2 | 32 | 85 |

Reference: article PMC10336096
